Measured values as given in patent US20210347900A1 (AstraZeneca / MedImmune, published 2021).
Positions count from the first letter of the chain named. Numbers in names are those of the source.

T1: Human CLEC-4L (DC-SIGN) (human, UniProt Q9NNX6 62-404)
T1 construct: Bought protein; also called C-type lectin domain family 4 member L
T1 sequence (looked up): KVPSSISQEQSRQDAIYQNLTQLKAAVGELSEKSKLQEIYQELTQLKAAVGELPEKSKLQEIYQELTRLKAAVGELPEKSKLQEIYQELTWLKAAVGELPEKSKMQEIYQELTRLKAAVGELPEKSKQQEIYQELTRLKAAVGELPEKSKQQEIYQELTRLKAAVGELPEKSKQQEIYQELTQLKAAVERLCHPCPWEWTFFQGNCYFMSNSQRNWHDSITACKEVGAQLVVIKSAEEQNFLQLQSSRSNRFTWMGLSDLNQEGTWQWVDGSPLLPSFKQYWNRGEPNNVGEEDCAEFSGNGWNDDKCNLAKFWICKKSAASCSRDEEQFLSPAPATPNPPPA

T2: Human SR-A1 (MSR) (human, UniProt P21757 77-451)
T2 construct: Bought protein; also called Macrophage scavenger receptor types I and II
T2 sequence (looked up): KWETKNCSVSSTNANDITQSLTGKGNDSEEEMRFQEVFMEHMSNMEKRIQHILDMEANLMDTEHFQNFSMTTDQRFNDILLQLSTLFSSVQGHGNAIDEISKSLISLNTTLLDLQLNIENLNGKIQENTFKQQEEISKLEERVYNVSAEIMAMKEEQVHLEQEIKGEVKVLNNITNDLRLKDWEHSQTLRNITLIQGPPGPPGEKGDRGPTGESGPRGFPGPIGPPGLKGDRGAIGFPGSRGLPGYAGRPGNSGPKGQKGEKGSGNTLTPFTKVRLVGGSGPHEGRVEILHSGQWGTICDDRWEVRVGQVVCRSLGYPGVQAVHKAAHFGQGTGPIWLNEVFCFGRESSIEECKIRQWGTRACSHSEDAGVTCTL

T3: Human CLEC-7A (Dectin-1) (human, UniProt Q9BXN2-2 66-201, limits assumed)
T3 construct: Bought protein; also called C-type lectin domain family 7 member A
T3 sequence (looked up): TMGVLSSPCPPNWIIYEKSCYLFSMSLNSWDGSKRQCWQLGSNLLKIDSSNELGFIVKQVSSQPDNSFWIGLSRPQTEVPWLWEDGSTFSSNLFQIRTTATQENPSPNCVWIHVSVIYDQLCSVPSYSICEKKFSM

T4: Human CLEC-1A (human, UniProt Q8NC01 74-280, limits assumed)
T4 construct: Bought protein; also called C-type lectin domain family 1 member A
T4 sequence (looked up): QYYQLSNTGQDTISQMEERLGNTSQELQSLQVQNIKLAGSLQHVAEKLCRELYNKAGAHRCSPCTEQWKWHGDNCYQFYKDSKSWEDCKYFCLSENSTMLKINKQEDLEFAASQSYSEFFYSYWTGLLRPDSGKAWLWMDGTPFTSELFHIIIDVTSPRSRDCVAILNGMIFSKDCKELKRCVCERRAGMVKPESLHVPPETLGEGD

B1: LX6960073_gl IgG1-TM (antibody, V domains shown)
VH: EVQLVESGGGLVQPGRSLRLSCAASGFTSDDYAMHWVRQAPGKGLEWVSGISWNSGSIGYADSVKGRFTISRDNAKNSLYLQMNGLRAEDTAVYYCAREGSWNYDALDIWGQGTMVTVSS
VL: QSALTQPASVSGSPGQPITISCTGTSSDVGGYNYVSWYQQHPGKAPKLMIYDVSKRPSGVSNRFSGSKSGNTASLTISGLQAEDEADYYCMGGMGRSTNWVFGGGTKLTVL
notes: Whole human IgG1-TM, germlined
B2: LX5140092_N>D IgG1-TM (antibody, V domains shown)
VH: QVQLVQSGAEVKKPGASVKVSCKVSGYTLTELSMHWVRQAPGKGLEWMGGFDPEDWKYHLSQKFQGRVTMTEDTSTDTAYMELSSLRSEDTAVYYCATPDGTHQGGVRGWDYYYGMDVWGQGTTVTVSS
VL: QSVVTQPPSVSGAPGQRVTISCTGSSSNIGAGYDVHWYQQLPGTAPKLLIYGNSNRPSGVPDRFSGSKSGTSASLAITGLQAEDEADYYCQSYDSSLSGWVFGGGTKLTVL
notes: Whole human IgG1-TM; Heavy chain N96D (Kabat) variant of LX5140092; also called LX5140092_D
B3: LX5140093_N>D IgG1-TM (antibody, V domains shown)
VH: B2 VH with K57A, L60Q, S61A, T102Q, H103Q, Q104G, G105K
VL: B2 VL with L97H, S98R, G99A, V101A
notes: Whole human IgG1-TM; Heavy chain N96D (Kabat) variant of LX5140093; also called LX5140093_D
B4: LX5140108 IgG1-TM (antibody, V domains shown)
VH: B2 VH with K57S, Y58N, L60V, A97L, P99S, D100T, T102R, H103Q, Q104G, G105K
VL: B2 VL
notes: Whole human IgG1-TM (L234F/L235E/P331S)

Target: T5, mouse LOX1-(FlagHis) extracellular domain (mouse, UniProt Q9EQ09 55-363)
T5 construct: extracellular domain
Assay: IgG binding ELISA on coated antigen, europium anti-human IgG detection
Procedure: (§1) Briefly, human (HisFlag)-LOX1, cynomolgus LOX1-(FlagHis), mouse LOX1-(FlagHis), rat LOX1-(FlagHis) and rabbit LOX1-(FlagHis) were coated at 5 μg/mL in PBS buffer on MAXISORP™ plates. After blocking with PBS containing 3% dried milk, purified anti-LOX1 IgG1-TM at 10 μg/mL in blocking buffer were incubated with the different coated antigens. Bound IgG molecules were detected using a secondary Europium labeled anti-human IgG antibody (Perkin Elmer) at 100 ng/mL. […] Non-specific binding was determined on CD86 FlagHis antigen also coated at 5 μg/mL.

T5 sequence (Q9EQ09 55-363): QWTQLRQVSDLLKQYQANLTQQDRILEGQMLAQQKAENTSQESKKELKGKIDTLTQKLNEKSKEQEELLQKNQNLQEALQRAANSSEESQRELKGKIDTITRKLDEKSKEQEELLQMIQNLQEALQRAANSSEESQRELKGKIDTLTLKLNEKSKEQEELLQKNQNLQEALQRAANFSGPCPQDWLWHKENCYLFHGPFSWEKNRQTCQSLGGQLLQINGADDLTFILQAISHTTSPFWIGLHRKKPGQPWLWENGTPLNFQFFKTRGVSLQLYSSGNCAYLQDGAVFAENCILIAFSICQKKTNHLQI

Binder | binding result
B1 | no binding (tested: 10 µg/mL (single concentration))
B2 | no binding (tested: 10 µg/mL (single concentration))
B3 | no binding (tested: 10 µg/mL (single concentration))
B4 | no binding (tested: 10 µg/mL (single concentration))

Target: T6, rat LOX1-(FlagHis) extracellular domain (rat, UniProt O70156 55-364)
T6 construct: extracellular domain
Assay: as above
Procedure: as §1

T6 sequence (O70156 55-364): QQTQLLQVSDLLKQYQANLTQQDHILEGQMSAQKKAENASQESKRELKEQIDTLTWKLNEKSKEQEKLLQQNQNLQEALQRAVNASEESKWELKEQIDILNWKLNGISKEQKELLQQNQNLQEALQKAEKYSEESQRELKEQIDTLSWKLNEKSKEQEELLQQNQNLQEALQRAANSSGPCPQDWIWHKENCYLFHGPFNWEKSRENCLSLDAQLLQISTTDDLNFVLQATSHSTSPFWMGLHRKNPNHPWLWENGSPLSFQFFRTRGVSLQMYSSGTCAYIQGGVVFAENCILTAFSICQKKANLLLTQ

Binder | binding result
B1 | no binding (tested: 10 µg/mL (single concentration))
B2 | no binding (tested: 10 µg/mL (single concentration))
B3 | no binding (tested: 10 µg/mL (single concentration))
B4 | no binding (tested: 10 µg/mL (single concentration))

Target: T7, rabbit LOX1-(FlagHis) extracellular domain (rabbit, UniProt Q9XTA8 55-274)
T7 construct: extracellular domain
Assay: as above
Procedure: as §1

T7 sequence (Q9XTA8 55-274): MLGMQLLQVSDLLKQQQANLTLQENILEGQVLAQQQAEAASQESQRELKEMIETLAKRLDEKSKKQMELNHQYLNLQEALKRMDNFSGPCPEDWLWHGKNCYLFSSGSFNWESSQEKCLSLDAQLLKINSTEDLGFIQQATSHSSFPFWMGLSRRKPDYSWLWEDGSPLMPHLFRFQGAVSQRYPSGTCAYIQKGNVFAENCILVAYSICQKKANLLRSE

Binder | binding result
B1 | no binding (tested: 10 µg/mL (single concentration))
B2 | binds
B3 | no binding (tested: 10 µg/mL (single concentration))
B4 | binds

Target: T8, Human CLEC-1B (CLEC-2) (human, UniProt Q9P126 58-229, limits assumed)
T8 construct: Bought protein; also called C-type lectin domain family 1 member B
Assay: IgG binding ELISA on coated antigen, absorbance at 450 nm;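 further: specificity panel of related human receptors, coated alongside human LOX1 as the binding positive control, with an isotype human IgG1-TM antibody setting the nonspecific background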
Source text: (§2) The panel of related molecules included human CLEC-7A (Dectin-1), human CLEC-1A, human CLEC-4L (DC-SIGN), human CLEC-1B (CLEC-2), human SR-A1 and human SR-B3 (CD36). Human LOX1 was also coated as positive control for binding. […] The isotype human IgG1-TM control antibody NIP228 was included in the panel of antibodies to test for determining nonspecific background level.

T8 sequence (Q9P126 58-229 limits assumed): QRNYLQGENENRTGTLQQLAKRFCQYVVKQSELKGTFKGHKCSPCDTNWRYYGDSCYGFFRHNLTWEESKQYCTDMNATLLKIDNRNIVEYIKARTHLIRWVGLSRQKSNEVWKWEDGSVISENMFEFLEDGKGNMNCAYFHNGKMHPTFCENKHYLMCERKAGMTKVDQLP

Binder | binding result
B1 | no binding
B2 | no binding
B3 | no binding
B4 | no binding

Target: T1, Human CLEC-4L (DC-SIGN)
Assay: as above
Source text: as §2

Binder | binding result
B1 | no binding
B2 | no binding
B3 | no binding
B4 | no binding

Target: T2, Human SR-A1 (MSR)
Assay: as above
Source text: as §2

Binder | binding result
B1 | no binding
B2 | no binding
B3 | no binding
B4 | no binding

Target: T3, Human CLEC-7A (Dectin-1)
Assay: as above
Source text: as §2

Binder | binding result
B1 | no binding
B2 | no binding
B3 | no binding
B4 | no binding

Target: T9, Human SR-B3 (CD36) (human, UniProt P16671 30-439)
T9 construct: Bought protein; also called Platelet glycoprotein 4
Assay: as above
Source text: as §2

T9 sequence (P16671 30-439 limits assumed): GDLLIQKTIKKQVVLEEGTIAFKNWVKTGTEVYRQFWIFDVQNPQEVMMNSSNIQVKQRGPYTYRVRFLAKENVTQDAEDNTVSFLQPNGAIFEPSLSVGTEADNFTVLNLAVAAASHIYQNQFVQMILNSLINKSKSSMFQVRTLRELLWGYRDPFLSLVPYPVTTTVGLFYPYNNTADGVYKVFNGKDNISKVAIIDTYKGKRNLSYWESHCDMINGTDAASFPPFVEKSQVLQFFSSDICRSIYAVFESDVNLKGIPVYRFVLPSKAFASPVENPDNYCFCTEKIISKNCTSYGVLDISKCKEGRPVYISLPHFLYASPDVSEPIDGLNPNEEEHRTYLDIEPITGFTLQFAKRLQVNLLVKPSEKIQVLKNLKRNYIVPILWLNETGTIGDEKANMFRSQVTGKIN

Binder | binding result
B1 | no binding
B2 | no binding
B3 | no binding
B4 | no binding

Target: T4, Human CLEC-1A
Assay: as above
Source text: as §2

Binder | binding result
B1 | no binding
B2 | no binding
B3 | no binding
B4 | no binding
